No end group written: not given here. modified Toyopearl AF‑Amino‑650M resin = not defined here
Legend:
[1] = target: Human polyclonal immunoglobulin G (IgG), lyophilized, Equitech-Bio, Inc. (human); experiment: affinity chromatography of IgG from cMEM, yield = IgG eluted / IgG loaded; cycle 50, 49 washes with 0.5 M NaOH
[2] = target: Human polyclonal immunoglobulin G (IgG), lyophilized, Equitech-Bio, Inc. (human); experiment: affinity chromatography of IgG from cMEM, yield = IgG eluted / IgG loaded; cycle 1, 0 washes with 1 M NaOH
[3] = target: Human polyclonal immunoglobulin G (IgG), lyophilized, Equitech-Bio, Inc. (human); experiment: affinity chromatography of IgG from cMEM, yield = IgG eluted / IgG loaded; cycle 50, 49 washes with 1 M NaOH
[4] = target: Human polyclonal immunoglobulin G (IgG), lyophilized, Equitech-Bio, Inc. (human); experiment: affinity chromatography of IgG from cMEM, yield = IgG eluted / IgG loaded; cycle 200, 199 washes with 0.1 M NaOH
[5] = target: Human polyclonal immunoglobulin G (IgG), lyophilized, Equitech-Bio, Inc. (human); experiment: affinity chromatography of IgG from cMEM, yield = IgG eluted / IgG loaded; cycle 100, 99 washes with 0.1 M NaOH
[6] = target: Human polyclonal immunoglobulin G (IgG), lyophilized, Equitech-Bio, Inc. (human); experiment: affinity chromatography of IgG from cMEM, yield = IgG eluted / IgG loaded; cycle 20, 19 washes with 1 M NaOH
[7] = target: Human polyclonal immunoglobulin G (IgG), lyophilized, Equitech-Bio, Inc. (human); experiment: affinity chromatography of IgG from cMEM, yield = IgG eluted / IgG loaded; cycle 10, 9 washes with 1 M NaOH
[8] = target: Human polyclonal immunoglobulin G (IgG), lyophilized, Equitech-Bio, Inc. (human); experiment: affinity chromatography of IgG from cMEM, yield = IgG eluted / IgG loaded; cycle 25, 24 washes with 0.5 M NaOH
[9] = target: Human polyclonal immunoglobulin G (IgG), lyophilized, Equitech-Bio, Inc. (human); experiment: affinity chromatography of IgG from cMEM, yield = IgG eluted / IgG loaded; cycle 1, 0 washes with 0.5 M NaOH
[10] = target: Human polyclonal immunoglobulin G (IgG), lyophilized, Equitech-Bio, Inc. (human); experiment: affinity chromatography of IgG from cMEM, yield = IgG eluted / IgG loaded; cycle 1, 0 washes with 0.1 M NaOH
[11] = target: Human polyclonal immunoglobulin G (IgG), lyophilized, Equitech-Bio, Inc. (human); experiment: affinity chromatography of IgG from cMEM, yield = IgG eluted / IgG loaded; cycle 75, 74 washes with 0.5 M NaOH
[12] = target: Human polyclonal immunoglobulin G (IgG), lyophilized, Equitech-Bio, Inc. (human); experiment: affinity chromatography of IgG from cMEM, yield = IgG eluted / IgG loaded; cycle 30, 29 washes with 1 M NaOH
[13] = target: Human polyclonal immunoglobulin G (IgG), lyophilized, Equitech-Bio, Inc. (human); experiment: affinity chromatography of IgG from cMEM, yield = IgG eluted / IgG loaded; cycle 50, 49 washes with 0.1 M NaOH
[14] = target: Human polyclonal immunoglobulin G (IgG), lyophilized, Equitech-Bio, Inc. (human); experiment: affinity chromatography of IgG from cMEM, yield = IgG eluted / IgG loaded; cycle 100, 99 washes with 0.5 M NaOH
[15] = target: Human polyclonal immunoglobulin G (IgG), lyophilized, Equitech-Bio, Inc. (human); experiment: affinity chromatography of IgG from cMEM, yield = IgG eluted / IgG loaded; cycle 25, 24 washes with 0.1 M NaOH
[16] = target: Human polyclonal immunoglobulin G (IgG), lyophilized, Equitech-Bio, Inc. (human); experiment: affinity chromatography, yield = IgG eluted / IgG loaded; cycle 5, after three 0.1 M NaOH washes
[17] = target: Human polyclonal immunoglobulin G (IgG), lyophilized, Equitech-Bio, Inc. (human); experiment: affinity chromatography, yield = IgG eluted / IgG loaded; cycle 4, after two 0.1 M NaOH washes
[18] = target: Human polyclonal immunoglobulin G (IgG), lyophilized, Equitech-Bio, Inc. (human); experiment: affinity chromatography, yield = IgG eluted / IgG loaded; cycle 3, after the first 0.1 M NaOH wash (ligand partly leached)
[19] = target: Human polyclonal immunoglobulin G (IgG), lyophilized, Equitech-Bio, Inc. (human); experiment: affinity chromatography, yield = IgG eluted / IgG loaded; cycle 2, after phosphoric acid regeneration, before any NaOH wash
[20] = target: Human polyclonal immunoglobulin G (IgG), lyophilized, Equitech-Bio, Inc. (human); experiment: affinity chromatography, IgG 10 mg/mL in cMEM loaded on 0.1 mL column, eluted with 0.2 M acetate pH 4; yield = IgG eluted / IgG loaded (Protein G HPLC); cycle 1, before any NaOH wash

IgG yield [1]	IgG yield [2]	IgG yield [3]	IgG yield [4]	IgG yield [5]	IgG yield [6]	IgG yield [7]	IgG yield [8]	IgG yield [9]	IgG yield [10]	IgG yield [11]	IgG yield [12]	IgG yield [13]	IgG yield [14]	IgG yield [15]	IgG yield [16]	IgG yield [17]	IgG yield [18]	IgG yield [19]	IgG yield [20]	Binder
85%	88%	76%	85%	87%	82%	84%	87%	89%	91%	82%	79%	88%	80%	90%						HWRGWVA-{modified Toyopearl AF‑Amino‑650M resin} (reading uncertain) [HWRGWV (SEQ ID NO: 1) synthesized on modified Toyopearl AF-Amino-650M resin (density 0.11 meq/g)]
															21%	21%	23%	85%	85%	HWRGWV-{Toyopearl AF‑Amino‑650M resin} (also: coupled partly by amide, partly by ester bonds)

Source: US20130165539A1
